Reference: publication PMC6650482, “Tyrosine 51 residue of the syndecan-2 extracellular domain is involved in the interaction with and activation of pro-matrix metalloproteinase-7” (Scientific Reports, 2019)
Where a chain is given by its changes, count along the chain named. Names and notes keep the numbering of the source. “Also recorded” adds a separate entry of the source. Values belong to the molecule of their own block, whether it stands above or below them.

What was measured:
[1] = Circular dichroism secondary structure; format: physicochemical
Method: Figure 2 The pro-domain of MMP-7 is involved in its interaction with the syndecan-2 extracellular domain. (A) Schematic representations of the pro-domain of MMP-7 (PD) and the deletion mutants lacking the pro-domain, N-terminus (ΔN), C-terminus (ΔC) and both N- and C-terminus (ΔNC) (top). His-tagged MMP-7 pro-domain was purified with Ni-NTA agarose beads, separated by SDS-PAGE and stained with Coomassie Blue (bottom). (B) Purified GST-S2E, S2E-C and S2E-NII were incubated with His-tagged PD, or ΔN, ΔC or ΔNC MMP-7 pro-domain. Materials bound to glutathione-agarose beads were immunoblotted with an anti-His tag antibody (top). The membranes were then stripped and re-probed with an anti-GST antibody (bottom). […] Absorbance was measured at 450 nm. […]
Figure 4 The α2–3 helix of the MMP-7 pro-domain is involved in its interaction with the syndecan-2 extracellular domain. […] (C) The secondary structure of the α2–3 helix of the MMP-7 pro-domain was analyzed using CD in the presence of different concentrations of TFE (top). Quantitative estimations of the secondary-structure content were made with the CDPro software package, which includes the programs CDSSTR, CONTIN, and SELCON3. […] Smaller values of NRMSD indicate closer correspondence between calculated structures and the experimental data. […]

[2] = test system: N-terminus of the extracellular domain of syndecan-2; assay: In vitro binding of MMP-7 α2–3 helix with N-terminus of the syndecan-2 extracellular domain; design: species or system human; conditions: His-tagged α2–3, GST-SDC2 mutants, anti-His immunoblot
Method: (§1) Figure 4 The α2–3 helix of the MMP-7 pro-domain is involved in its interaction with the syndecan-2 extracellular domain. (A) Structure of the MMP-7 pro-domain (PDB; 2MZE) and schematic diagram of the MMP-7 pro-domain (PD) and its deletion mutants. The indicated MMP-7 pro-domain mutants were purified with Ni-NTA agarose beads, separated by SDS-PAGE. Purified MMP-7 pro-domain mutants were incubated with GST-SDC-2. Materials bound to glutathione-agarose beads were immunoblotted with an anti-His tag antibody and the membranes were stripped and re-probed with an anti-GST antibody. Image is of a single membrane cropped to remove intervening lanes. (B) Purified GST-SDC2 mutants were incubated with His-tagged α2–3 helix of the MMP-7 pro-domain. Materials bound to glutathione-agarose beads were immunoblotted with an anti-His tag antibody (top) and the membranes were then stripped and re-probed with an anti-GST antibody (bottom). (C) The secondary structure of the α2–3 helix of the MMP-7 pro-domain was analyzed using CD in the presence of different concentrations of TFE (top). Quantitative estimations of the secondary-structure content were made with the CDPro software package, which includes the programs CDSSTR, CONTIN, and SELCON3. […] Smaller values of NRMSD indicate closer correspondence between calculated structures and the experimental data.

GST-SDC-2 = assay: In vitro binding of MMP-7 pro-domain fragments to GST-SDC2; design: species or system human; conditions: GST-SDC-2, glutathione-agarose beads, anti-His immunoblot
Method: as §1

[3] = test system: His-tagged α2–3 helix of the MMP-7 pro-domain; assay: In vitro binding of GST-SDC2 proteins to His-tagged α2–3; design: species or system human; conditions: 2 h at 4 °C, glutathione-agarose beads, immunoblot
Method: as §1, with “data. […]” for “data.”

[4] = target: T1, His-tagged pro-domain of MMP-7 (His-PD) (Homo sapiens, UniProt P09237); assay: In vitro binding (GST pulldown / anti-His immunoblot) with His-PD; conditions: GST-tagged proteins
T1 construct: His tag; pET32a(+) vector-encoded fusion part (thioredoxin/S-tag by own knowledge of the vector); made in house
T1 sequence (P09237 18-94 limits assumed): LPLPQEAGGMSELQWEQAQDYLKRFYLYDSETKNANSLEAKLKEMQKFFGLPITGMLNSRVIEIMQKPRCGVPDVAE
Description: Figure 1 The N-terminus of syndecan-2 interacts with the pro-domain of MMP-7. (A) Schematic representation of the syndecan-2 core protein (SDC2) and MMP-7. The signal peptide (SP), the extracellular domain (EC), the transmembrane domain (TM), and the cytoplasmic domain (CT) of syndecan-2 are noted, and the various deletion mutants are indicated. A peptide corresponding to residues 41–60 of the syndecan-2 extracellular domain (S2-P) was synthesized. Syndecan-2 is labeled with amino acid numbers to show the location of each deletion (left). Schematic representation of MMP-7. The pre-domain (Pre), pro-domain (PD), and catalytic domain are shown (right top). Purified GST-SDC2 mutants and the His-tagged pro-domain of MMP-7 were separated by 15% SDS-PAGE and stained with Coomassie Blue (right bottom). (B) Purified GST or GST-SDC2 mutants were incubated with His-tagged pro-domain of MMP-7 (His-PD). Bound materials were subjected to immunoblotting with an anti-His tag antibody (top). The membranes were then stripped and re-probed with an anti-GST antibody (bottom). (C) Purified GST-SDC2 was incubated with purified His-PD MMP-7 plus the indicated amounts of S2-P for 2 h at 4 °C. Bound materials were subjected to immunoblotting with an anti-His tag antibody (top). […] (D) Fluorescence spectroscopy indicates the binding affinity between His-PD and S2-P peptide. […]

[5] = test system: His-tagged ΔNC MMP-7 pro-domain; assay: In vitro binding of GST-SDC2 mutants to His-ΔNC; design: species or system human; conditions: 2 h at 4 °C, immunoblot
Method: Figure 2 The pro-domain of MMP-7 is involved in its interaction with the syndecan-2 extracellular domain. (A) Schematic representations of the pro-domain of MMP-7 (PD) and the deletion mutants lacking the pro-domain, N-terminus (ΔN), C-terminus (ΔC) and both N- and C-terminus (ΔNC) (top). His-tagged MMP-7 pro-domain was purified with Ni-NTA agarose beads, separated by SDS-PAGE and stained with Coomassie Blue (bottom). (B) Purified GST-S2E, S2E-C and S2E-NII were incubated with His-tagged PD, or ΔN, ΔC or ΔNC MMP-7 pro-domain. Materials bound to glutathione-agarose beads were immunoblotted with an anti-His tag antibody (top). The membranes were then stripped and re-probed with an anti-GST antibody (bottom). (C) ELISA plates coated with 600 ng of S2-P were incubated with the indicated His-tagged MMP-7 pro-domains (500 ng/well) for 2 h at 20 °C. The plates were washed, incubated with an anti-His tag antibody followed by IgG-HRP, and developed with TMB-ELISA. Absorbance was measured at 450 nm. Data are shown as mean ± S.D. (n = 3), *p < 0.05 versus blank. (D) Purified GST-SDC2 was mixed with His-tagged ΔNC for 2 h at 4 °C., separated by SDS-PAGE, and immunoblotted with anti-His or -GST antibodies. (E) The secondary structures of the MMP-7 pro-domain mutants of ΔN, ΔC and ΔNC were diluted to 50 μM in a buffer consisting of 10 mM HEPES and 20 mM NaCl, pH 8, and kept at 20 °C. […]

[6] = target: His-tagged pro-domain of MMP-7 (His-PD) (human, UniProt P09237 18-267, Limits are the UniProt activation peptide. Paper's NMR numbering + 24 = precursor numbering (Gln7=Q31, Glu32=E56, Gly48=G72, Ser52=S76). Deletion-construct numbering implies a PD of about 79 residues,); assay: other fluorescence titration; tryptophan quenching; 15 uM His-PD, S2-P titrated up to 1:200 molar ratio; PBS pH 7.4, 298 K; excitation 280 nm, intensity at 347 nm; conditions: both partners purified
Chain of His-tagged pro-domain of MMP-7 (His-PD) (human, UniProt P09237 18-267, Limits are the UniProt activation peptide. Paper's NMR numbering + 24 = precursor numbering (Gln7=Q31, Glu32=E56, Gly48=G72, Ser52=S76). Deletion-construct numbering implies a PD of about 79 residues,) (P09237 18-267): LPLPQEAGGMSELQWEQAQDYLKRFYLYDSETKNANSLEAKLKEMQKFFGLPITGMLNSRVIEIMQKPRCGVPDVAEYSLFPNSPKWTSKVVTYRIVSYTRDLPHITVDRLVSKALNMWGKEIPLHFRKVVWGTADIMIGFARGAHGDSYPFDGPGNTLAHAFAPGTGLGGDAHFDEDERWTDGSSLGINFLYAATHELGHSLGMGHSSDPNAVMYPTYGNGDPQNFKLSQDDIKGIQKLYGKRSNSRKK

Molecule: α2–3: α2 helix-loop-α3 helix protein fragment of the MMP-7 pro-domain
- helicity ([1]; CD, α-helical fraction from CDPro, without TFE): 75%
- secondary structure by CD (qualitative) ([1]; far-UV CD, pro-domain mutants at 50 μM, 10 mM HEPES, 20 mM NaCl, pH 8, 20 °C (Fig. 2E), α2–3 in Fig. 4C): had a helical structure, as suggested by the presence of minima (negative peaks) at 208 and 222 nm
- interaction with the N-terminus of the extracellular domain of syndecan-2 (pulldown, qualitative) [2]: interacted with the N-terminus of the extracellular domain of syndecan-2
- interaction with syndecan-2 (pulldown, qualitative) (GST-SDC-2): interacted with syndecan-2, although to a slightly weaker degree than ΔNC; also recorded: interacted with recombinant syndecan-2 in vitro

B2: S2E: GST-tagged syndecan-2 extracellular domain (protein)
chain: ESRAELTSDKDMYLDNSSIEEASGVYPIDDDDYASASGSGADEDVESPELTTSRPLPKILLTSAAPKVETTTLNIQNKIPAQTKSPEETDKEKVHLSDSERKMDPAEEDTNVYTEKHSDSLFKRTE
modifications: left off: GST, end not stated, kept
notes: GST-tagged syndecan-2 extracellular domain
- interaction with His-PD (pulldown, qualitative) [4]: interacted with the pro-domain of MMP-7

B3: D49A: substitution of Asp49 with Ala in the syndecan-2 extracellular domain (protein)
chain: B2 chain with D31A
modifications: left off: GST, end not stated, kept
notes: substitution of Asp49 with Ala in the syndecan-2 extracellular domain
- interaction with His-tagged ΔNC (pulldown, qualitative) [5]: did not affect its interaction

B4: Y51A: substitution of Tyr51 with Ala in the syndecan-2 extracellular domain (protein)
chain: B2 chain with Y33A
modifications: left off: GST, end not stated, kept
notes: substitution of Tyr51 with Ala in the syndecan-2 extracellular domain
- interaction with α2–3 (pulldown, qualitative) [3]: failed to interact with the α2–3
- interaction with His-tagged ΔNC (pulldown, qualitative) [5]: significantly reduced the interaction

The remaining lines, values ahead:

- interaction with α2–3 (pulldown, qualitative) [3]: interacted with the α2–3
B1: recombinant syndecan-2: Purified GST-SDC2 (protein, UniProt P34741 19-201, looked up)
Syndecan-2: ESRAELTSDKDMYLDNSSIEEASGVYPIDDDDYASASGSGADEDVESPELTTSRPLPKILLTSAAPKVETTTLNIQNKIPAQTKSPEETDKEKVHLSDSERKMDPAEEDTNVYTEKHSDSLFKRTEVLAAVIAGGVIGFLFAIFLILLLVYRMRKKDEGSYDLGERKPSSAAYQKAPTKEFYA
modifications: GST tag
notes: Purified GST-SDC2

- Kd [6]: 1586 ± 12 µM
B5: synthetic human syndecan-2 peptide (S2-P), extracellular domain residues 41-60 (peptide)
peptide: SGVYPIDDDDYASASGSGAD
notes: human syndecan-2 extracellular domain residues 41-60; also called S2-P peptide; source: synthetic peptide (Fmoc solid-phase, Anygen Inc.)
